Results: patent US20090068158A1, “THYMIDYLATE KINASE MUTANTS AND USES THEREOF” (priority 2005, published 2009)
Entries after “also recorded” stand apart in the source; their conditions may differ.

Experiments:
[1] = test system: Jurkat cells; assay: AZT sensitivity of LV-tmpk-transduced Jurkat cells (MTT cell viability assay); type: cell-based, human; conditions: for cell viability upon addition of AZT (in words), Example 15: clonal Jurkat cells, AZT up to 1 mM, 4 days
Experimental: Transduced Jurkat cells and the single-cell clones were seeded in 96 well plates (2×10^5/well) in 200 μl of medium containing increasing concentrations of AZT (0, 1, 10 and 100 μM). The medium was changed daily. […] Data are expressed as mean±standard error of mean (SEM).
To examine the AZT-mediated celikilling activity of tmpk cDNA, each of transduced cells were incubated with the increasing concentration of AZT. After incubating both non-transduced and LV-transduced cells with AZT for […], cell viability was determined using MTT assay (FIG. 4A).
Transduced Jurkat cells and single-cell clones were seeded in 96 well plates (2×10^5 cells/well) in 200 μl of the RPMI medium described above with increasing concentrations of AZT (0, 0.1, 1, 10, 100 μM, and 1 mM). The medium was changed daily. After 4 days of culture, cell viability was determined by using Cell Titer 96 Aqueous One Solution Cell Proliferation Assay kit (Promega, Madison, Wis.).

[2] = test system: Jurkat cells; assay: Induction of apoptosis by 100 μM AZT in LV-tmpk-transduced Jurkat cells (annexin V staining); type: cell-based, human; conditions: 4 days; for early apoptotic cell index in response to AZT treatment: transduced Jurkat cells, n=3
Experimental: Cells were seeded in 24 well plates (10^6/well) in 1 ml of medium with or without 100 μM of AZT. The medium was changed daily. After 4 days of culture, induction of apoptosis in the cells were analyzed by annexin-V staining according to the manufacturer's protocol (Annexin V-APC: BD Pharmingen). **, P<0.01, n=3. Data are expressed as mean±SEM.
(§1) For evaluation of the induction of apoptosis, treated Jurkat clonal cells were stained with Annexin V. Briefly, cells were seeded in 24 well plates (10^6 cells/well) in 1 ml of medium with or without 100 μM AZT. After 4 days of culture, Annexin V staining was performed according to the manufacturer's protocol (Annexin V-APC: BD Pharmingen). For testing whether AZT-mediated cell killing depends on the cellular proliferation, indirubin-3′-monoxime (final concentration 5 μM, Sigma-Aldrich, St. Louis, Mo.) was added simultaneously with 100 μM AZT to the culture.
(§2) To simplify comparative studies a relative apoptotic index was calculated. Here data obtained was normalized by dividing results from AZT treated cells in each condition by the results obtained without added AZT. Values were reported as fold increases. Statistical significance between groups was calculated by ANOVA.

[3] = test system: Jurkat cells; assay: HPLC determination of intracellular AZT metabolites in cells treated with 100 μM AZT; type: cell-based, human
Experimental: The cells were cultured in the presence of 100 μM AZT for 36 hrs. 10^7 cells were homogenized by sonication in 100 μl of 5% (w/v) trichloroacetic acid. The supernatant is collected after homogenate had been centrifuged at 10,000×g for 15 min at 4° C. The trichloroacetic acid was removed by extraction with an equal volume of 20% tri-n-octylamine in pentane. The neutralized aqueous fraction is directly injected into HPLC. Separation of AZT and its metabolites was performed on a C18 column (Waters) with a mobile phase composed of 0.2 M phosphate buffer containing 4 mM tetrabutylammonium hydrogen sulfate (pH 7.5) and acetonitrile in the ratio of 97:3 (v/v). The mobile phase was pumped at a flow rate of 1.5 ml/min. The UV absorbance was monitored at 270 nm. Five million cell equivalents were injected and analyzed in triplicate.
Cells were cultured in the presence of 100 μM AZT for 36 h. 10^7 cells were homogenized by sonication in 100 μl of 5% (w/v) trichloroacetic acid (TCA). The supernatant was collected after centrifugation at 10,000×g for 15 min at 4° C. TCA was removed by extraction with an equal volume of 20% tri-n-octylamine in pentane. The neutralized aqueous fraction was directly injected into the HPLC machine (Waters, Milford. MA). Separation of AZT and its metabolites were performed on a C18 column (Waters), with a mobile phase composed of 0.2 M phosphate buffer containing 4 mM tetrabutylammonium hydrogen sulfate (pH 7.5) and acetonitrile in the ratio of 97:3 (v/v)^48 at a flow rate of 1.5 ml/min. The UV absorbance was monitored at 270 nm. Standards for each AZT-metabolite (AZT-MP, AZT-DP, and AZT-TP) were purchased from Moravek Biochemicals (Brea, Calif.). Five million cell equivalents were injected and analyzed in triplicate.

[4] = test system: Jurkat cells; assay: Loss of mitochondrial membrane potential after AZT (JC-1 staining, flow cytometry); type: cell-based, human; conditions: transduced Jurkat cells, 100 μM AZT
Experimental: Cells (10^6 cells) treated with (shown (+) in figure) or without (−) 100 μM AZT were stained with JC-1 for […] at 37° C., and then were analyzed by flow cytometry. ***, P<0.001, n=3.
(§3) Transduced cells […] were treated with 100 μM AZT for 4 days or left untreated. To detect changes in the mitochondrial inner membrane potential, the cells were incubated with 5,5′,6,6′-tetrachloro-1,1′,3,3′-tetraethylbenzimidazolylcarbocyanine iodide (JC-1, Molecular Probes Inc.) for 30 min at 37° C., and were then analyzed using a FACS Calibur. The activation of caspase-3 in cells was examined using the FACS Calibur following incubation with an FITC-labeled caspase 3 inhibitor peptide (FITC-DEVD-FMK, Calbiochem, San Diego, Calif.) for 1 hr at 37° C.

[5] = test system: Jurkat cells; assay: AZT-induced apoptosis/cell killing under cell cycle arrest with indirubin-3'-oxime; type: cell-based, human
Experimental: Cells were seeded in 24-well plates (10^6/well) in 1 ml of medium containing 0 (shown in AZT (−) in figure) or 100 μM of AZT (shown in AZT (+)) with or without 5 μM indirubin-3′-oxime (Figure (B) and (A), respectively). The medium was refreshed daily. After 2 days of culture, induction of apoptosis by AZT was analyzed by annexin V staining according to the manufacturer's protocol described. **, P<0.01, n=3. Data are expressed as mean±SEM.
as §1, §2

[6] = test system: K562 cells; assay: Growth of transduced K562 cells xenografted into AZT-treated NOD/SCID mice; type: in vivo; conditions: for tumor size / final tumor volume: transduced K562 cells sc in NOD/SCID mice, four and a half weeks past injection
Experimental: Female or male 5 to 8-week-old non-obese diabetic/severe combined immunodeficient (NOD/SCID) mice were purchased from Jackson Laboratory. Lentivirally-transduced or non-transduced K562 cells (20×10^6 cells) were resuspended in 0.5 mL Dulbecco's phosphate-buffered saline (D-PBS) per inoculum and injected subcutaneously (SC) into the right flanks of recipient mice. AZT treatment, which was administered intraperitoneally (IP) at the dose of 2.5 mg/kg/day, was started one day after injection and conducted for 14 days. In vivo tumor cell growth was monitored by measuring tumor size for up to 32 days post-inoculations. All experimental data were reproduced at least twice.
Transduced K562 cells were affinity-purified by MACS using magnetic beads conjugated with an anti-human CD19 monoclonal antibody (Miltenyi Biotec Inc., Auburn, Calif.). The purity of the cells following isolation was evaluated by FACS Calibur. Non-obese diabetic/severe combined immunodeficiency (NOD/SCID) mice (5 to 8-weeks old, purchased from Jackson Laboratories, Bar Harbor, Me.) were maintained at the Animal Resource Centre at the Princess Margaret Hospital (Toronto, ON, Canada). The entire animal experimental procedure followed a protocol approved by the Animal Care Committee of the UHN. Experimental groups consisted of male and female NOD/SCID mice injected with 2×10^7 K562 cells (resuspended in 0.5 mL D-PBS; Oxoid, Basingstoke, England) that were either lentivirally-transduced (n=10 for each LV) or non-transduced (NT) (n=10). Injections were performed subcutaneously (sc) into the dorsal right flanks of recipient mice as previously described^49. One day after injection of the cells, half of the mice in each group (n=5) began receiving daily AZT injections, administered intraperitoneally (ip) at a dose of 2.5 mg/kg/day for 14 days. Tumor growth was measured by caliper and calculated as 0.5×length×width^2 (in mm^3) for up to […].

[7] = test system: Jurkat cells; assay: Activation of caspase 3 by AZT (FITC-DEVD-FMK, flow cytometry); type: cell-based, human; conditions: clonal Jurkat cells, 100 μM AZT, 4 days
Experimental: as §3

[8] = test system: primary human T cells; assay: Induction of apoptosis by AZT in transduced primary human T cells (annexin V); type: cell-based; conditions: 100 μM AZT, 4 days
Experimental: Human T lymphocytes were isolated from PBMNCs contained within heparinized blood obtained from healthy human donors by Ficoll-Hypaque (GE Healthcare) separations. Mouse T cells were prepared from B cell-depleted splenocyte preparations using goat anti-mouse IgG beads (BioMag, Qiagen, Mississauga, ON). T cells were activated by using anti-CD3 and anti-CD28 coated beads (PMID: 12855580) in a ratio of 1:3 (cell:beads) with 20 IU/mL of recombinant human interleukin 2 (R&D Systems, Minneapolis, Minn.) for 3 days. Cells were infected with concentrated virus stocks for 3 h on ice using an indicated MOI in the presence of 8 μg/ml protamine sulfate. Infected cells were then kept in culture for 5 days prior to evaluating gene transfer efficiency. Gene transfer efficiencies were measured by flow cytometry using a monoclonal anti-human CD19-antibody conjugated with phycoerythrin (PE) as described above. Induction of apoptosis following AZT-exposure was evaluated by Annexin V-staining as above.

[9] = Enzymatic activity of tmpk mutants for AZT-MP; type: biochemical, human

Molecule	cell viability upon addition of AZT (in words), Example 15 [1]	AZT sensitivity / cell killing of transduced cells (in words) ([1]; transduced Jurkat cells, AZT up to 100 μM)	early apoptotic cell index in response to AZT treatment [2] [%]	intracellular ratio of AZT-TP to AZT-MP ([3]; LV-transduced Jurkat cells, 100 μM AZT for 36 h)	conversion of AZT-MP / accumulation of AZT-TP (in words) ([3]; clonal Jurkat cells, 100 μM AZT 36 h)	loss of mitochondrial (inner) membrane potential after AZT treatment (in words) [4]	apoptotic index with AZT in presence of indirubin-3'-monoxime (in words) ([5]; clonal Jurkat cells, 100 μM AZT + 5 μM indirubin-3'-monoxime, 4 days)	cells killed by AZT after cell cycle arrest ([5]; transduced Jurkat cells, indirubin-3'-oxime 5 μM, 100 μM AZT, 2 days) [%]	tumor growth under AZT (in words), Example 8/10 ([6]; transduced K562 cells in NOD/SCID mice, AZT 2.5 mg/kg for two weeks)	tumor size / final tumor volume ([6]; AZT 2.5 mg/kg for two weeks)	activation of caspase 3 by AZT (in words) [7]	fold increase of apoptotic index by AZT-treatment ([2]; clonal Jurkat cells, normalized to no AZT) [fold]	fold increase of apoptotic index by AZT in presence of indirubin-3'-monoxime ([5]; clonal Jurkat cells, 100 μM AZT + 5 μM indirubin-3'-monoxime, 4 days, normalized to no AZT) [fold]	tumor growth under daily AZT (in words), Example 15 ([6]; 2×10^7 transduced K562 cells sc in NOD/SCID mice, AZT 2.5 mg/kg/day ip for two weeks, day 14)	fold increase in percentage of activated caspase 3-positive cells by AZT ([7]; normalized to no AZT) [fold]	fold increase of apoptotic index by AZT [8] [fold]	enzymatic activity / catalytic conversion compared to wild-type tmpk (in words) [9]
wild-type tmpk: wild-type human thymidylate kinase overexpressed by LV transduction, comparator (protein, UniProt P23919 2-212, looked up) Thymidylate kinase: AARRGALIVLEGVDRAGKSTQSRKLVEALCAAGHRAELLRFPERSTEIGKLLSSYLQKKSDVEDHSVHLLFSANRWEQVPLIKEKLSQGVTLVVDRYAFSGVAFTGAKENFSLDWCKQPDVGLPKPDLVLFLQLQLADAAKRGAFGHERYENGAFQERALRCFHQLMKDTTLNWKMVDASKSIEAVHEDIRVLSEDAIRTATEKPLGELWK	limited cell killing	non-sensitive to AZT up to 100 μM; also recorded: unaffected by AZT up to 100 μM	6.2±0.3	0.10	no significant increases in the accumulation of AZT-TP	did not demonstrate a similar loss of mitochondrial inner membrane potential	No significant increases	2	no significant reduction in tumor volume	2000 mm^2	slight, but significant, increase	–	–	–	–	–	–
F105Y: modified human thymidylate kinase (tmpk), F to Y mutation at amino acid position 105 (SEQ ID NO: 11, 21) (protein, UniProt P23919 2-212, looked up, variant F105Y) Thymidylate kinase: AARRGALIVLEGVDRAGKSTQSRKLVEALCAAGHRAELLRFPERSTEIGKLLSSYLQKKSDVEDHSVHLLFSANRWEQVPLIKEKLSQGVTLVVDRYAFSGVAYTGAKENFSLDWCKQPDVGLPKPDLVLFLQLQLADAAKRGAFGHERYENGAFQERALRCFHQLMKDTTLNWKMVDASKSIEAVHEDIRVLSEDAIRTATEKPLGELWK	minimally viable	–	40.7±1.7	–	–	significant increase	–	–	–	100-300 mm^2	–	9.5±0.8	2.3±0.4	strongly inhibited; also recorded: suppression of tumor growth	4.6±0.1	4.0±0.3	substantially increased catalytic conversion of AZT; also recorded: superior enzymatic activity
R200A: modified human tmpk, R to A mutation at amino acid position 200 (SEQ ID NOS: 15 and 16) (protein, UniProt P23919 2-212, looked up, variant R200A) Thymidylate kinase: AARRGALIVLEGVDRAGKSTQSRKLVEALCAAGHRAELLRFPERSTEIGKLLSSYLQKKSDVEDHSVHLLFSANRWEQVPLIKEKLSQGVTLVVDRYAFSGVAFTGAKENFSLDWCKQPDVGLPKPDLVLFLQLQLADAAKRGAFGHERYENGAFQERALRCFHQLMKDTTLNWKMVDASKSIEAVHEDIRVLSEDAIATATEKPLGELWK	–	–	–	–	–	–	–	–	–	–	–	–	–	–	–	–	superior enzymatic activity
